Source: US20260263521A1 (AIMED BIO, published 2026)

What was measured:
[1] = target: T1, monkey CD200R1 (ELISA antigen of Example 14) (monkey); experiment: ELISA on monkey CD200R1, normalized absorbance at 450 nm, 0.0192-300 nM; panel 'Cyno CD200R1'
T1 chain: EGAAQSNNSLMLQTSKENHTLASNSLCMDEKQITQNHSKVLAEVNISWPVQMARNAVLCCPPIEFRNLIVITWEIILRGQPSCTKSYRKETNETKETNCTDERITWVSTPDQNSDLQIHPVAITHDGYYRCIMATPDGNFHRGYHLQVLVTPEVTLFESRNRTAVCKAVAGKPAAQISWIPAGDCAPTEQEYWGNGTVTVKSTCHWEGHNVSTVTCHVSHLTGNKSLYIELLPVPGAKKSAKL

[2] = target: T2, human CD200R1 expressed on cells (Jurkat-CD200R1, U937-CD200R1, HH cells) (human, UniProt Q8TD46 25-348); experiment: flow cytometry, U937-CD200R cells
T2 construct: whole, on cells; also called HH (CRL-2105); cell surface-expressed CD200R1
T2 sequence (looked up): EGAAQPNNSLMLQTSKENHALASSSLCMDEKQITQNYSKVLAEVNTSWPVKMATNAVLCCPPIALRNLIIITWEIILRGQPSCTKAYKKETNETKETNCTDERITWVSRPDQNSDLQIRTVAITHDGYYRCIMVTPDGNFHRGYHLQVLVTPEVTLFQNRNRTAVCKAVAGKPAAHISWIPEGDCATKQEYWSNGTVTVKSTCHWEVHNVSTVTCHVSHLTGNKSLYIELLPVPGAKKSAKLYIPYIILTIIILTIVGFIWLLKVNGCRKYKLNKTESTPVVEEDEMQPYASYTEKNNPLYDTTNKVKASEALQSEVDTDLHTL
Protocol: Two additional wells were treated with 10 μl of mouse IgG1K (BD, #555751) and 5 μl of commercial CD200R1 antibody (Biolegend, #329308) to determine CD200R1 expression on the cell line surface for cell quality control.
The antibodies were serially diluted 10-fold from a maximum concentration of 100 nM to 10 nM, 1 nM, […], and were added to the pre-seeded cells. After reaction for 1 hour at 4° C., the cells were treated with Alexa-647 goat anti-human IgG (H+L) cross-adsorbed secondary antibody (Invitrogen, #A21445) and incubated for an additional 30 minutes at 4° C. After washing twice with FACS buffer, flow cytometry was performed using a Novocyte Flow cytometer (Agilent). Using GraphPad Prism software, the EC₅₀ was determined using a nonlinear graph model of log (agonist) vs. response-variable slope, as shown in Table 32.

[3] = target: T3, cynomolgus CD200R1 with dual His-tags (cynomolgus, UniProt G7NZT0 25-266); experiment: SPR (Biacore CM5), His-tagged antigen captured by anti-histidine antibody, antibody as analyte, 1:1 Langmuir fit
T3 construct: Captured on the SPR chip by an anti-histidine antibody; also called CCD200R1-his; cCD200R1-his; not shown: dual His-tags
T3 sequence: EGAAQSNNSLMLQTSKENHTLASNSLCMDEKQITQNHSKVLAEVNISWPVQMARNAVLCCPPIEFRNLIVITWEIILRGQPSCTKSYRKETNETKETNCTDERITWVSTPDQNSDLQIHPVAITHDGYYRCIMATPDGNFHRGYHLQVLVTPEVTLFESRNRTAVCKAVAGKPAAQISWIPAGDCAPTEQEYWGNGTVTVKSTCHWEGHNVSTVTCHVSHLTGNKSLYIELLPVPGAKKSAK
Protocol: (§1) For the experiment, 30 μg/mL of an anti-histidine antibody was conjugated to a CM5 biacore chip via an amine bond while allowing to flow at 10 μl/min (10,000 RU). Then, 0.25 μg/mL of human or cynomolgus CD200R1 with dual His-tags was captured onto the completed chip for 60 seconds, and the binding ability of each antibody was analyzed. All experiments were performed by association of antibodies for 120 seconds and dissociation of antibodies for 600 seconds. The resulting graphs were fitted using a 1:1 Langmuir binding kinetic model (FIG. 16), and the kinetics of each antibody were calculated.

[4] = target: T4, human CD200R1 with dual His-tags (human, UniProt Q8TD46 25-265); experiment: as above
T4 construct: Captured on the SPR chip by an anti-histidine antibody; also called hCD200R1-his; not shown: dual His-tags
T4 sequence (looked up): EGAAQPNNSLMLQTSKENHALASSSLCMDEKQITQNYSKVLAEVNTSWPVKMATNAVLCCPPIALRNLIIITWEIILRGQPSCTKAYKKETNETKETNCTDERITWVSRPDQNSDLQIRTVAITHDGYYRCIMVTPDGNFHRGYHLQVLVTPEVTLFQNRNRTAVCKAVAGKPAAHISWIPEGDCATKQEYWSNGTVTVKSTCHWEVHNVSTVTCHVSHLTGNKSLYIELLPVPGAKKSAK
Protocol: as §1

Hybrid CD200R1 MH = target: T5, Hybrid CD200R1 MH (mouse;human, UniProt Q9ES57;Q8TD46); experiment: ELISA, plate-bound MH hybrid (1 ug/mL), antibody 0.0192-300 nM, O.D 450 nm; panel 'P001 MH domain-2)'
T5 construct: single domain; mouse D1 over human D2; also called MH hybrid domain; P001 MH domain
T5 sequence (hybrid extracellular part, looked up): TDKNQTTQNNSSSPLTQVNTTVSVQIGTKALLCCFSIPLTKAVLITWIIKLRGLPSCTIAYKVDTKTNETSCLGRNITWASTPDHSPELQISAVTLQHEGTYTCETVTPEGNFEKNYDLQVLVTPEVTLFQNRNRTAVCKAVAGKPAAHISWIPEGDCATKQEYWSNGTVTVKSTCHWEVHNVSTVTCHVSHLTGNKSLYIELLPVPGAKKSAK
Protocol: Recombinant proteins were produced from the extracellular Ig-like V-type domain and Ig-like C2-type domain of human CD200R1, each designed as human-mouse (HM hybrid domain) and mouse-human (MH hybrid domain) recombinant proteins. A 96-well plate was coated at a concentration of 1 μg/mL with each protein at 4° C. for 16 hours and blocked with 3% skim milk. […] After color development with TMB substrate solution (Thermo Scientific, 34029, 1-Step™ Ultra TMB-ELISA Substrate Solution), the color reaction was stopped with a stop solution (Invitrogen, SS04, ELISA Stop Solution), and the absorbance was measured at an O.D. of 450 nm.

EC50 (read off the curve) [1]: ~5 nM
Kd [3]: 2.08 nM
koff [3]: 0.0117 s⁻¹
kon [3]: 5.63e+06 M⁻¹ s⁻¹
B1: P001009 (IgG) (antibody, V domains shown)
VH: EVQLLESGGGLVQPGGSLRLSCAASGFTFSSYDMSWVRQAPGKGLEWVSWISHGGGSIYYADSVKGRFTISRDNSKNTLYLQMNSLRAEDTAVYYCARDAPAYSAPLFDYWGQGTLVTVSS
VL: QSVLTQPPSASGTPGQRVTISCSGSSSNIGNNAVNWYQQLPGTAPKLLIYYDSNRPSGVPDRFSGSKSGTSASLAISGLRSEDEADYYCAAWDDSLSGYVFGGGTKLTVL
notes: also called P001009 WT; P001009 wt
EC50 [2]: 0.41 nM
Kd [4]: 0.0475 nM
koff [4]: 0.000134 s⁻¹
kon [4]: 2.81e+06 M⁻¹ s⁻¹
binding result (Hybrid CD200R1 MH): no binding (tested: 300 nM)
